Legend:
HeLa Kyoto [1] = assay: solubility in G1/S (NP-40 vs SDS abundance) (log2 ratio); higher = more soluble; settings: cell cycle stage: G1/S
HeLa Kyoto [2] = assay: melting temperature (median over replicates), in situ; higher = more thermally stable
HeLa Kyoto [3] = assay: solubility change mitosis vs G1/S (difference of NP-40 vs SDS log2 ratios) (log2 ratio difference); higher = more soluble in mitosis
HeLa Kyoto [4] = assay: thermal stability score vs G1/S (z-score of summed log2 fold changes over temperatures); higher = more thermally stable than in G1/S
[5] = cell cycle stage: early G1 (4.5 h after nocodazole release)
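For melting temperature (median over replicates), in situ in this document: HeLa Kyoto cells synchronized by double thymidine or nocodazole block, proteins quantified by TMT10plex mass spectrometry, three independent biological replicates.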
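For solubility change mitosis vs G1/S (difference of NP-40 vs SDS log2 ratios) in this document: synchronized HeLa Kyoto cells (double thymidine block for G1/S, nocodazole release for mitosis), protein amounts in NP-40 versus SDS lysates quantified by mass spectrometry, three biological replicates.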
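For solubility in G1/S (NP-40 vs SDS abundance) in this document: HeLa Kyoto cells arrested at G1/S by double thymidine block, proteins quantified by TMT10plex mass spectrometry in mild NP-40 versus SDS extracts, three biological replicates.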
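For thermal stability score vs G1/S (z-score of summed log2 fold changes over temperatures) in this document: synchronized HeLa Kyoto cells, proteins quantified by TMT10plex mass spectrometry, three biological replicates, mitosis taken 0.5 h after nocodazole release, G1/S directly after double thymidine block.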

Sequence	solubility in G1/S (log2) (HeLa Kyoto [1])	melting temperature (HeLa Kyoto [2]; cell cycle stage: G1/S) [°C]	melting temperature (HeLa Kyoto [2]; cell cycle stage: mitosis) [°C]	solubility change mitosis (log2) (HeLa Kyoto [3])	thermal stability score (HeLa Kyoto [4]; [5])	thermal stability score (HeLa Kyoto [4]; cell cycle stage: mitosis)
MDRMASSMKQVPNPLPKVLSRRGVGAGLEAAERESFERTQTVSINKAINTQEVAVKEKHARTCILGTHHEKGAQTFWSVVNRLPLSSNAVLCWKFCHVFHKLLRDGHPNVLKDSLRYRNELSDMSRMWGHLSEGYGQLCSIYLKLLRTKMEYHTKNPRFPGNLQMSDRQLDEAGESDVNNFFQLTVEMFDYLECELNLFQTVFNSLDMSRSVSVTAAGQCRLAPLIQVILDCSHLYDYTVKLLFKLHSCLPADTLQGHRDRFMEQFTKLKDLFYRSSNLQYFKRLIQIPQLPENPPNFLRASALSEHISPVVVIPAEASSPDSEPVLEKDDLMDMDASQQNLFDNKFDDIFGSSFSSDPFNFNSQNGVNKDEKDHLIERLYREISGLKAQLENMKTESQRVVLQLKGHVSELEADLAEQQHLRQQAADDCEFLRAELDELRRQREDTEKAQRSLSEIERKAQANEQRYSKLKEKYSELVQNHADLLRKNAEVTKQVSMARQAQVDLEREKKELEDSLERISDQGQRKTQEQLEVLESLKQELATSQRELQVLQGSLETSAQSEANWAAEFAELEKERDSLVSGAAHREEELSALRKELQDTQLKLASTEESMCQLAKDQRKMLLVGSRKAAEQVIQDALNQLEEPPLISCAGSADHLLSTVTSISSCIEQLEKSWSQYLACPEDISGLLHSITLLAHLTSDAIAHGATTCLRAPPEPADSLTEACKQYGRETLAYLASLEEEGSLENADSTAMRNCLSKIKAIGEELLPRGLDIKQEELGDLVDKEMAATSAAIETATARIEEMLSKSRAGDTGVKLEVNERILGCCTSLMQAIQVLIVASKDLQREIVESGRGTASPKEFYAKNSRWTEGLISASKAVGWGATVMVDAADLVVQGRGKFEELMVCSHEIAASTAQLVAASKVKADKDSPNLAQLQQASRGVNQATAGVVASTISGKSQIEETDNMDFSSMTLTQIKRQEMDSQVRVLELENELQKERQKLGELRKKHYELAGVAEGWEEGTEASPPTLQEVVTEKE [HIP1]	0.0989	49.9	50.2	0.0765	0.173	1.11
MDRSAEFRKWKAQCLSKADLSRKGSVDEDVVELVQFLNMRDQFFTTSSCAGRILLLDRGINGFEVQKQNCCWLLVTHKLCVKDDVIVALKKANGDATLKFEPFVLHVQCRQLQDAQILHSMAIDSGFRNSGITVGKRGKTMLAVRSTHGLEVPLSHKGKLMVTEEYIDFLLNVANQKMEENKKRIERFYNCLQHALERETMTNLHPKIKEKNNSSYIHKKKRNPEKTRAQCITKESDEELENDDDDDLGINVTIFPEDY [TYW3]	0.102	55	54.9	-0.194	-0.67	-1.25
MDRSSKRRQVKPLAASLLEALDYDSSDDSDFKVGDASDSEGSGNGSEDASKDSGEGSCSDSEENILEEELNEDIKVKEEQLKNSAEEEVLSSEKQLIKMEKKEEEENGERPRKKKEKEKEKEKEKEKEKEREKEKEKATVSENVAASAAATTPATSPPAVNTSPSVPTTTTATEEQVSEPKKWNLRRNRPLLDFVSMEELNDMDDYDSEDDNDWRPTVVKRKGRSASQKEGSDGDNEDDEDEGSGSDEDENDEGNDEDHSSPASEGGCKKKKSKVLSRNSADDEELTNDSLTLSQSKSNEDSLILEKSQNWSSQKMDHILICCVCLGDNSEDADEIIQCDNCGITVHEGCYGVDGESDSIMSSASENSTEPWFCDACKCGVSPSCELCPNQDGIFKETDAGRWVHIVCALYVPGVAFGDIDKLRPVTLTEMNYSKYGAKECSFCEDPRFARTGVCISCDAGMCRAYFHVTCAQKEGLLSEAAAEEDIADPFFAYCKQHADRLDRKWKRKNYLALQSYCKMSLQEREKQLSPEAQARINARLQQYRAKAELARSTRPQAWVPREKLPRPLTSSASAIRKLMRKAELMGISTDIFPVDNSDTSSSVDGRRKHKQPALTADFVNYYFERNMRMIQIQENMAEQKNIKDKLENEQEKLHVEYNKLCESLEELQNLNGKLRSEGQGIWALLGRITGQKLNIPAILRAPKERKPSKKEGGTQKTSTLPAVLYSCGICKKNHDQHLLLLCDTCKLHYHLGCLDPPLTRMPRKTKNSYWQCSECDQAGSSDMEADMAMETLPDGTKRSRRQIKEPVKFVPQDVPPEPKKIPIRNTRTRGRKRSFVPEEEKHEERVPRERRQRQSVLQKKPKAEDLRTECATCKGTGDNENLVRCDECRLCYHFGCLDPPLKKSPKQTGYGWICQECDSSSSKEDENEAERKNISQELNMEQKNPKK [PHF14]	-1.13	–	50.1	0.708	-0.0393	2.42
MDRVTRYPILGIPQAHRGTGLVLDGDTSYTYHLVCMGPEASGWGQDEPQTWPTDHRAQQGVQRQGVSYSVHAYTGQPSPRGLHSENREDEGWQVYRLGARDAHQGRPTWALRPEDGEDKEMKTYRLDAGDADPRRLCDLERERWAVIQGQAVRKSSTVATLQGTPDHGDPRTPGPPRSTPLEENVVDREQIDFLAARQQFLSLEQANKGAPHSSPARGTPAGTTPGASQAPKAFNKPHLANGHVVPIKPQVKGVVREENKVRAVPTWASVQVVDDPGSLASVESPGTPKETPIEREIRLAQEREADLREQRGLRQATDHQELVEIPTRPLLTKLSLITAPRRERGRPSLYVQRDIVQETQREEDHRREGLHVGRASTPDWVSEGPQPGLRRALSSDSILSPAPDARAADPAPEVRKVNRIPPDAYQPYLSPGTPQLEFSAFGAFGKPSSLSTAEAKAATSPKATMSPRHLSESSGKPLSTKQEASKPPRGCPQANRGVVRWEYFRLRPLRFRAPDEPQQAQVPHVWGWEVAGAPALRLQKSQSSDLLERERESVLRREQEVAEERRNALFPEVFSPTPDENSDQNSRSSSQASGITGSYSVSESPFFSPIHLHSNVAWTVEDPVDSAPPGQRKKEQWYAGINPSDGINSEVLEAIRVTRHKNAMAERWESRIYASEEDD [MISP]	-2.09	–	51.9	1.38	-1.21	-1.86
MDSDDEMVEEAVEGHLDDDGLPHGFCTVTYSSTDRFEGNFVHGEKNGRGKFFFFDGSTLEGYYVDDALQGQGVYTYEDGGVLQGTYVDGELNGPAQEYDTDGRLIFKGQYKDNIRHGVCWIYYPDGGSLVGEVNEDGEMTGEKIAYVYPDERTALYGKFIDGEMIEGKLATLMSTEEGRPHFELMPGNSVYHFDKSTSSCISTNALLPDPYESERVYVAESLISSAGEGLFSKVAVGPNTVMSFYNGVRITHQEVDSRDWALNGNTLSLDEETVIDVPEPYNHVSKYCASLGHKANHSFTPNCIYDMFVHPRFGPIKCIRTLRAVEADEELTVAYGYDHSPPGKSGPEAPEWYQVELKAFQATQQK [SETD7]	-0.127	48.7	50.5	-0.119	1.42	2.54
MDSVEKGAATSVSNPRGRPSRGRPPKLQRNSRGGQGRGVEKPPHLAALILARGGSKGIPLKNIKHLAGVPLIGWVLRAALDSGAFQSVWVSTDHDEIENVAKQFGAQVHRRSSEVSKDSSTSLDAIIEFLNYHNEVDIVGNIQATSPCLHPTDLQKVAEMIREEGYDSVFSVVRRHQFRWSEIQKGVREVTEPLNLNPAKRPRRQDWDGELYENGSFYFAKRHLIEMGYLQGGKMAYYEMRAEHSVDIDVDIDWPIAEQRVLRYGYFGKEKLKEIKLLVCNIDGCLTNGHIYVSGDQKEIISYDVKDAIGISLLKKSGIEVRLISERACSKQTLSSLKLDCKMEVSVSDKLAVVDEWRKEMGLCWKEVAYLGNEVSDEECLKRVGLSGAPADACSTAQKAVGYICKCNGGRGAIREFAEHICLLMEKVNNSCQK [CMAS]	-0.289	50.8	50	0.303	-0.251	-0.391
MDTESTYSGYSYYSSHSKKSHRQGERTRERHKSPRNKDGRGSEKSVTIQPPTGEPLLGNDSTRTEEVQDDNWGETTTAITGTSEHSISQEDIARISKDMEDSVGLDCKRYLGLTVASFLGLLVFLTPIAFILLPPILWRDELEPCGTICEGLFISMAFKLLILLIGTWALFFRKRRADMPRVFVFRALLLVLIFLFVVSYWLFYGVRILDSRDRNYQGIVQYAVSLVDALLFIHYLAIVLLELRQLQPMFTLQVVRSTDGESRFYSLGHLSIQRAALVVLENYYKDFTIYNPNLLTASKFRAAKHMAGLKVYNVDGPSNNATGQSRAMIAAAARRRDSSHNELYYEEAEHERRVKKRKARLVVAVEEAFIHIQRLQAEEQQKAPGEVMDPREAAQAIFPSMARALQKYLRITRQQNYHSMESILQHLAFCITNGMTPKAFLERYLSAGPTLQYDKDRWLSTQWRLVSDEAVTNGLRDGIVFVLKCLDFSLVVNVKKIPFIILSEEFIDPKSHKFVLRLQSETSV [VANGL1]	-0.322	56	54.7	0.00763	-1.85	-3.36

— the supplement of paper PMC5998384
